The experiment has as its target T1, DJ-1 (mouse (endogenous in mouse frontal cortex)), Q99LX0.
T1 chain: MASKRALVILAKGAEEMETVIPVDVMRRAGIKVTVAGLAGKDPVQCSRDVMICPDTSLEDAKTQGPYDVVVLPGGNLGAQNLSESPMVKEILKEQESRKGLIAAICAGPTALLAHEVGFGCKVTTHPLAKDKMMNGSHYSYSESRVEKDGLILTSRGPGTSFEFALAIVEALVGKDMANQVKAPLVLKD
Put plainly: cross-linking. The conditions noted are these: remark: other sources report otherwise.

B1: DJ-1, Q99LX0 1-189 (natural protein)
chain: MASKRALVILAKGAEEMETVIPVDVMRRAGIKVTVAGLAGKDPVQCSRDVMICPDTSLEDAKTQGPYDVVVLPGGNLGAQNLSESPMVKEILKEQESRKGLIAAICAGPTALLAHEVGFGCKVTTHPLAKDKMMNGSHYSYSESRVEKDGLILTSRGPGTSFEFALAIVEALVGKDMANQVKAPLVLKD
As to B1, the stoichiometry N (usually a count of units in the complex or per binding partner) came to 2.

Source of the values: publication PMC10957154.
